Measured values: publication PMC8630071, “The NUCKS1-SKP2-p21/p27 axis controls S phase entry”

T1: NUCKS1, dephosphorylated (UniProt Q9H1E3 1-243)
T1 sequence: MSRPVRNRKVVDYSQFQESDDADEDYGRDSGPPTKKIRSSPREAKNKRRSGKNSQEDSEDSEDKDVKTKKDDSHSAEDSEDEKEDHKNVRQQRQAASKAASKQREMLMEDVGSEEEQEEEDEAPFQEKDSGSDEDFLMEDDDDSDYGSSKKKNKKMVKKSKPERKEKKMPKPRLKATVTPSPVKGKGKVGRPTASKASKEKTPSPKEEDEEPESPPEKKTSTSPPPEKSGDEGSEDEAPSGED


Tests used:
NUCKS1, dephosphorylated [1] = biological target: T1, NUCKS1, dephosphorylated; assay: EMSA; lambda phosphatase treated; 10.24-2500 nM protein, 25 nM probe; text: almost 10-fold; 20 mM Tris-HCl pH 7.5, 100 mM KCl, 0.2% NP-40, 20% glycerol, 2 mM DTT, 50 ng (pure protein) or 1 ug (extract) salmon sperm DNA, 25 nM probe, 15 min at 37 C; native 6% PAGE; details: protein: recombinant; tags: His6; label: IRDye-800; blunt
NUCKS1, dephosphorylated [2] = biological target: T1, NUCKS1, dephosphorylated; assay: competition EMSA; 100x unlabelled competitor against labelled WT probe; not outcompeted; 20 mM Tris-HCl pH 7.5, 100 mM KCl, 0.2% NP-40, 20% glycerol, 2 mM DTT, 50 ng (pure protein) or 1 ug (extract) salmon sperm DNA, 25 nM probe, 15 min at 37 C; native 6% PAGE; details: protein: recombinant; tags: His6; blunt

Binder | binding signal (NUCKS1, dephosphorylated [1]) | binding result (NUCKS1, dephosphorylated [2])
SKP2 promoter WT probe (dsDNA) DNA 1: GCCGACCAGTCCCGCTCCCGCGGGGGGTTGTGGGTATCTCGAAGGCGGGTAAAGCTGCA DNA 2: TGCAGCTTTACCCGCCTTCGAGATACCCACAACCCCCCGCGGGAGCGGGACTGGTCGGC | ~10 fold higher affinity than phosphorylated NUCKS1 | 
SKP2 promoter mutant probe (no GC-box), unlabelled competitor (dsDNA) DNA 1: GCCGACCAGTCCCGCTCCCGCGGGGGGTTGTGGGTATCTCGAAAAAAAATAAAGCTGCA DNA 2: TGCAGCTTTATTTTTTTTCGAGATACCCACAACCCCCCGCGGGAGCGGGACTGGTCGGC |  | no binding
